Biological target: L-glucagon (natural) (human) (UniProt P01275)
Assay: competitive pull-down
Settings: all L-nucleotides, Selection buffer: 20 mM Tris pH 7.4, 150 mM NaCl, 5 mM KCl, 1 mM MgCl2, 1 mM CaCl2, 0.1% Tween 20, 0.1% CHAPS, 100 ug/ml HSA, 10 ug/ml yeast RNA, 37 C …

Chain of L-glucagon (natural) (human) (P01275 53-81): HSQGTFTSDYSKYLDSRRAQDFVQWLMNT

In the case of “GCAGTGGGGAAATGGGAGGGCTAGGTGGAAGGAATCTGAGCTACTGC [L-257-E1-001-6xR]”, the Kd (ribonucleotides at positions 9, 15, 18, 19, 29, 30, rest deoxy) is reported as 6.4 nM.

“GCAGTGGGGAAATGGGAGGGCTAGGTGGAAGGAATCTGAGCTACTGC [L-257-E1-001-R15/29/30]” was tested, and the Kd (ribonucleotides at positions 15, 29, 30, rest deoxy) was 20 nM.

In the case of “GCGGGAAATGGGAGGGCTAGGTGGAAGGAATCTGAGCGC [L-257-E1-030-6xR]”, the Kd (ribonucleotides at positions 5, 11, 14, 15, 25, 26, rest deoxy) is reported as 6.3 nM.
